{"source": "patent US20120053118A1", "key": {"[1]": {"molecular_target": "amylin receptors (membrane-bound, rat basal forebrain membranes containing the nucleus accumbens and surrounding regions) (rat)", "experiment": "competition with 125I Bolton-Hunter rat amylin on rat basal forebrain membranes"}, "[2]": {"molecular_target": "amylin receptors (membrane-bound, rat basal forebrain membranes containing the nucleus accumbens and surrounding regions) (rat)", "experiment": "competition with 125I Bolton-Hunter rat amylin on rat basal forebrain membranes", "remark": "listed apart in the source"}}, "note": "Like-named read-outs stand apart in the source and are kept apart here. Bridge positions count the residues as written; N and C are the ends. Ends that are not written are not given here."}
{"molecule": "human amylin (hAmylin) (ligand)", "values": [{"measurement": "IC50", "setting": "[1]", "result": 50000, "unit": "nM"}]}
{"molecule": "KCNTATCATQRLANFLVHSSNNFGPILPSTNVGSNTY", "note": "[^25, 28Pro-h-Amylin]", "values": [{"measurement": "IC50", "setting": "[2]", "result": 0.026, "unit": "nM"}]}
{"molecule": "KCNTATCATQRLANFLVHSSNNFGPVLPPTNVGSNTY", "note": "[^25Pro^26Val^28, 29Pro-h-Amylin]", "values": [{"measurement": "IC50", "setting": "[2]", "result": 0.018, "unit": "nM"}]}
{"molecule": "KCNTATCATQRLANFLVHSSNNFGPILPPTNVGSNTY (disulfide 2-7; not fully specified (C-terminus))", "note": "[^25, 28, 29Pro-h-Amylin]", "values": [{"measurement": "IC50", "setting": "[2]", "result": 0.01, "unit": "nM"}]}
{"molecule": "KCNTATCATQRLANFLVRSSNNFGPILPPTNVGSNTY", "note": "[^18Arg^25, 28, 29Pro-h-Amylin]", "values": [{"measurement": "IC50", "setting": "[2]", "result": 0.021, "unit": "nM"}]}
{"molecule": "KDNTATKATQRLANFLVHSSNNFGAILSSTNVGSNTY (lactam 2-7; not fully specified (C-terminus))", "note": "[^2, 7Cyclo-[^2Asp,^7Lys]-h-Amylin]", "values": [{"measurement": "IC50", "setting": "[2]", "result": 0.31, "unit": "nM"}]}
{"molecule": "KCNTATCATQRLANFLVRSSNNFGPILPSTNVGSNTY", "note": "[^18Arg^25, 28Pro-h-Amylin]", "values": [{"measurement": "IC50", "setting": "[2]", "result": 0.032, "unit": "nM"}]}
{"molecule": "CNTATCATQRLANFLVHSSNNFGPILPSTNVGSNTY", "note": "[des-^1Lys^25, 28Pro-h-Amylin]", "values": [{"measurement": "IC50", "setting": "[2]", "result": 0.085, "unit": "nM"}]}
{"molecule": "CNTATCATQRLANFLVHSSNNFGPILPPTNVGSNTY", "note": "[des-^1Lys^25, 28, 29Pro-h-Amylin]", "values": [{"measurement": "IC50", "setting": "[2]", "result": 0.014, "unit": "nM"}]}
{"molecule": "CNTATCATQRLANFLVRSSNNFGPILPPTNVGSNTY", "note": "[des-^1Lys^18Arg^25, 28, 29Pro-h-Amylin]", "values": [{"measurement": "IC50", "setting": "[2]", "result": 0.021, "unit": "nM"}]}
{"molecule": "CNTATCATQRLANFLVRSSNNFGPILPSTNVGSNTY", "note": "[des-^1Lys^18Arg^25, 28Pro-h-Amylin]", "values": [{"measurement": "IC50", "setting": "[2]", "result": 0.082, "unit": "nM"}]}
